Results as given in patent US20240344124, “Quantum Dot-Enrichment of CRISPR-Associated (Cas) Proteins for Environmental RNA Enrichment” (The Government of the United States of America, as …, published 2024).

Biological target: T1, dLwaCas13a (LwaC2c2 R474A/R1046A double mutant); the text does not say whether the double or the quad mutant … (Leptotrichia wadei)
T1 chain: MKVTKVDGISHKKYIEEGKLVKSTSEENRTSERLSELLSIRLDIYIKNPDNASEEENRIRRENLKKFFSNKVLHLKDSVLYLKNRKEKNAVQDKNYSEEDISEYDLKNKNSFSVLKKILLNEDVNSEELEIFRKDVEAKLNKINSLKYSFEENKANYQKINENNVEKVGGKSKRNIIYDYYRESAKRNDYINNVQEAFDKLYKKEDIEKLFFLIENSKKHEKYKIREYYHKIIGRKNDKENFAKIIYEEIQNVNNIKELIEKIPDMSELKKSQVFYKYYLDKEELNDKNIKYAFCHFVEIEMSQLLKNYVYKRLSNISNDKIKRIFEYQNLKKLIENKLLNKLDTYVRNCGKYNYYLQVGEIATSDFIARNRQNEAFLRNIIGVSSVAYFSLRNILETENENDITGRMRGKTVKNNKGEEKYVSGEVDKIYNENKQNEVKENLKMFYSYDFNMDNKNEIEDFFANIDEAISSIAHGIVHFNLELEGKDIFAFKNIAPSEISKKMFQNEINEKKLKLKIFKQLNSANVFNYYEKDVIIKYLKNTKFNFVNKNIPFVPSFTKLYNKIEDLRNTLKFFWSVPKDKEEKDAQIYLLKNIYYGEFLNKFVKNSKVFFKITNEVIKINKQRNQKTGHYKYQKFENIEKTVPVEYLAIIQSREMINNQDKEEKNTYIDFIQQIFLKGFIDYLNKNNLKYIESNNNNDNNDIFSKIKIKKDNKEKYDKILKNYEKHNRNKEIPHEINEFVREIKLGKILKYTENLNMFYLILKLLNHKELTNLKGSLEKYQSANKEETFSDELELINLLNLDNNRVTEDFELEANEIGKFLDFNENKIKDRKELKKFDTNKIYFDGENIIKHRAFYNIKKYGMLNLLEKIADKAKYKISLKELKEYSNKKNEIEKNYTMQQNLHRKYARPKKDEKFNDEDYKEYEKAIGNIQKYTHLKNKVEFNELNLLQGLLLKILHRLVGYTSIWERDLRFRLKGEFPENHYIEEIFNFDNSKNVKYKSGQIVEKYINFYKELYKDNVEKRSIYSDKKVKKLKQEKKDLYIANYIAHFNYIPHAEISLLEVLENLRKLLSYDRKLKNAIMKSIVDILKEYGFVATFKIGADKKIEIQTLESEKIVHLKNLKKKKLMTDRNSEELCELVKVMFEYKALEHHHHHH
Test: pulldown; […]; 50 mM Tris pH 8, NaCl, 10 mM MgCl2, 37 C; […]
Details: tags: polyhistidine tag; GenScript

B1: cr7 crRNA ; shortened lcrV target RNA (237 nt) (ssRNA ; ssRNA)
RNA 1: GGGGAUUUAGACUACCCCAAAAACGAAGGGGACUAAAACAAUAUCUAUAUUUUUAUCUUUGACUAAC
RNA 2: AUUGAGGAUCUAGAAAAAGUUAGGGUGGAACAACUUACUGGUCAUGGUUCUUCAGUUUUAGAAGAAUUGGUUCAGUUAGUCAAAGAUAAAAAUAUAGAUAUUUCCAUUAAAUAUGAUCCCAGAAAAGAUUCGGAGGUUUUUGCCAAUAGAGUAAUUACUGAUGAUAUCGAAUUGCUCAAGAAAAUCCUAGCUUAUUUUCUACCCGAGGAUGCCAUUCUUAAAGGCGGUCAUUAUGAC
binding result: binds
